PMC11067747

Target: recombinant phytoplasmal effector causing phyllody 1 (PHYL1)
Test: cross-linking; recombinant IMP and PHYL1 mixed at 30 µM each in 1x PBS, 15 min at 20°C, then 1 mM bis(sulfosuccinimidyl)suberate (BS3) for 60 min; SDS-PAGE and Western blot with anti-IMP and anti-PHYL1

Work on “recombinant immunodominant membrane protein (IMP) without the transmembrane domain, amino acids 33-172, from Crotalaria witches' broom phytoplasma (domain or fragment)” yielded a stoichiometry N of 1.
